How the values were obtained:
[1] = target: Nucleolysin TIA-1 (endogenous mouse TIA1) (mouse) (UniProt P52912); experiment: TIA1 IP-MS, WT3 cortex
[2] = target: Nucleolysin TIA-1 (endogenous mouse TIA1) (mouse) (UniProt P52912); experiment: TIA1 IP-MS, tau KO 2 cortex
[3] = target: Nucleolysin TIA-1 (endogenous mouse TIA1) (mouse) (UniProt P52912); experiment: TIA1 IP-MS, tau KO 3 cortex
[4] = target: Nucleolysin TIA-1 (endogenous mouse TIA1) (mouse) (UniProt P52912); experiment: TIA1 IP-MS, WT1 cortex
[5] = target: Nucleolysin TIA-1 (endogenous mouse TIA1) (mouse) (UniProt P52912); experiment: TIA1 IP-MS, tau KO 1 cortex
[6] = target: Nucleolysin TIA-1 (endogenous mouse TIA1) (mouse) (UniProt P52912); experiment: TIA1 IP-MS, WT2 cortex

Sequence of UniProt P52912 (P52912 whole entry): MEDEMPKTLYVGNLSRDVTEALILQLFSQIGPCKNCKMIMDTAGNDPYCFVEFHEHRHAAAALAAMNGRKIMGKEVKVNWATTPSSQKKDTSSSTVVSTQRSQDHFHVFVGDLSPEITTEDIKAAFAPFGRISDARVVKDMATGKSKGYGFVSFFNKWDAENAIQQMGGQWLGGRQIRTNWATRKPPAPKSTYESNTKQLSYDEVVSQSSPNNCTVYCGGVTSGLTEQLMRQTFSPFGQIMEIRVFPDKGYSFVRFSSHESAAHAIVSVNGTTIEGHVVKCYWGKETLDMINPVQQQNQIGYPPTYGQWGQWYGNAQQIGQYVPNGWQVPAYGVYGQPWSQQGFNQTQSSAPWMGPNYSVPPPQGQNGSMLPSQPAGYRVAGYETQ

“Isoform Cytoplasmic of Fumarate hydratase, mitochondrial (from UniProt P97807 1-467)” was tested, and the total ion current (normalized to TIA1 = 1000) [1] was 0, the total ion current (normalized to TIA1 = 1000) [2] was 49.2 and the total ion current (normalized to TIA1 = 1000) [3] was 0. It also gave a total ion current (normalized to TIA1 = 1000) [4] of 0, a total ion current (normalized to TIA1 = 1000) [5] of 0 and a total ion current (normalized to TIA1 = 1000) [6] of 57.7.
“Isoform Glt-1A of Excitatory amino acid transporter 2 (from UniProt P43006 1-569)” showed a total ion current (normalized to TIA1 = 1000) [1] of 298, a total ion current (normalized to TIA1 = 1000) [2] of 96.4 and a total ion current (normalized to TIA1 = 1000) [3] of 0. The total ion current (normalized to TIA1 = 1000) [4] was 0, the total ion current (normalized to TIA1 = 1000) [5] was 0 and the total ion current (normalized to TIA1 = 1000) [6] was 187.
“Isoform I of Septin-6 (from UniProt Q9R1T4 2-427)” was tested, and the total ion current (normalized to TIA1 = 1000) [1] was 0, the total ion current (normalized to TIA1 = 1000) [2] was 35.6 and the total ion current (normalized to TIA1 = 1000) [3] was 0. The total ion current (normalized to TIA1 = 1000) [4] was 0, the total ion current (normalized to TIA1 = 1000) [5] was 0 and the total ion current (normalized to TIA1 = 1000) [6] was 53.3.
“Isoform M1 of Pyruvate kinase PKM (from UniProt P52480 1-531)” showed a total ion current (normalized to TIA1 = 1000) [1] of 722, a total ion current (normalized to TIA1 = 1000) [2] of 891 and a total ion current (normalized to TIA1 = 1000) [3] of 0. The total ion current (normalized to TIA1 = 1000) [4] was 0, the total ion current (normalized to TIA1 = 1000) [5] was 0 and the total ion current (normalized to TIA1 = 1000) [6] was 1130.
“Isoform Mt-VDAC1 of Voltage-dependent anion-selective channel protein 1 (from UniProt Q60932 2-283)” was tested, and the total ion current (normalized to TIA1 = 1000) [1] was 101, the total ion current (normalized to TIA1 = 1000) [2] was 0 and the total ion current (normalized to TIA1 = 1000) [3] was 0. For the same substance, the total ion current (normalized to TIA1 = 1000) [4] was 0, the total ion current (normalized to TIA1 = 1000) [5] was 0 and the total ion current (normalized to TIA1 = 1000) [6] was 184.
“Isovaleryl-CoA dehydrogenase, mitochondrial (from UniProt Q9JHI5 31-424)” was tested, and the total ion current (normalized to TIA1 = 1000) [1] was 0, the total ion current (normalized to TIA1 = 1000) [2] was 0 and the total ion current (normalized to TIA1 = 1000) [3] was 0. The total ion current (normalized to TIA1 = 1000) [4] was 7.28, the total ion current (normalized to TIA1 = 1000) [5] was 5.22 and the total ion current (normalized to TIA1 = 1000) [6] was 0.
For “Ketimine reductase mu-crystallin (from UniProt O54983 1-313)”, the total ion current (normalized to TIA1 = 1000) [1] was 0, the total ion current (normalized to TIA1 = 1000) [2] was 0 and the total ion current (normalized to TIA1 = 1000) [3] was 0. For the same substance, the total ion current (normalized to TIA1 = 1000) [4] was 8.5, the total ion current (normalized to TIA1 = 1000) [5] was 0 and the total ion current (normalized to TIA1 = 1000) [6] was 0.
With “LanC-like protein 1 (from UniProt O89112 2-399)” the total ion current (normalized to TIA1 = 1000) [1] was 218, the total ion current (normalized to TIA1 = 1000) [2] was 97.8 and the total ion current (normalized to TIA1 = 1000) [3] was 0. For the same substance, the total ion current (normalized to TIA1 = 1000) [4] was 0, the total ion current (normalized to TIA1 = 1000) [5] was 0 and the total ion current (normalized to TIA1 = 1000) [6] was 0.
With “Leucine-rich repeat-containing protein 59 (from UniProt Q922Q8 1-307)” the total ion current (normalized to TIA1 = 1000) [1] was 0, the total ion current (normalized to TIA1 = 1000) [2] was 0 and the total ion current (normalized to TIA1 = 1000) [3] was 0. The total ion current (normalized to TIA1 = 1000) [4] was 0, the total ion current (normalized to TIA1 = 1000) [5] was 10.6 and the total ion current (normalized to TIA1 = 1000) [6] was 408.
In the case of “Malate dehydrogenase, cytoplasmic (from UniProt P14152 2-334)”, the total ion current (normalized to TIA1 = 1000) [1] is reported as 31.7, the total ion current (normalized to TIA1 = 1000) [2] is reported as 81.6 and the total ion current (normalized to TIA1 = 1000) [3] is reported as 0. For the same substance, the total ion current (normalized to TIA1 = 1000) [4] was 0, the total ion current (normalized to TIA1 = 1000) [5] was 0 and the total ion current (normalized to TIA1 = 1000) [6] was 189.
“Malate dehydrogenase, mitochondrial (from UniProt P08249 25-338)” showed a total ion current (normalized to TIA1 = 1000) [1] of 131, a total ion current (normalized to TIA1 = 1000) [2] of 477 and a total ion current (normalized to TIA1 = 1000) [3] of 0. The total ion current (normalized to TIA1 = 1000) [4] was 0, the total ion current (normalized to TIA1 = 1000) [5] was 0 and the total ion current (normalized to TIA1 = 1000) [6] was 819.
“Microtubule-associated protein 6 (from UniProt Q7TSJ2 1-906)” showed a total ion current (normalized to TIA1 = 1000) [1] of 0, a total ion current (normalized to TIA1 = 1000) [2] of 36.1 and a total ion current (normalized to TIA1 = 1000) [3] of 0. The total ion current (normalized to TIA1 = 1000) [4] was 0, the total ion current (normalized to TIA1 = 1000) [5] was 0 and the total ion current (normalized to TIA1 = 1000) [6] was 116.
“Mitochondrial glutamate carrier 1 (from UniProt Q9D6M3 1-323)” showed a total ion current (normalized to TIA1 = 1000) [1] of 85, a total ion current (normalized to TIA1 = 1000) [2] of 12.2 and a total ion current (normalized to TIA1 = 1000) [3] of 0. For the same substance, the total ion current (normalized to TIA1 = 1000) [4] was 0, the total ion current (normalized to TIA1 = 1000) [5] was 0 and the total ion current (normalized to TIA1 = 1000) [6] was 136.
For “Mitogen-activated protein kinase 1 (from UniProt P63085 2-358)”, the total ion current (normalized to TIA1 = 1000) [1] was 0, the total ion current (normalized to TIA1 = 1000) [2] was 72.4 and the total ion current (normalized to TIA1 = 1000) [3] was 141. For the same substance, the total ion current (normalized to TIA1 = 1000) [4] was 0, the total ion current (normalized to TIA1 = 1000) [5] was 0 and the total ion current (normalized to TIA1 = 1000) [6] was 112.
Work on “Myelin-oligodendrocyte glycoprotein (from UniProt Q61885 29-246)” yielded a total ion current (normalized to TIA1 = 1000) [1] of 607, a total ion current (normalized to TIA1 = 1000) [2] of 76 and a total ion current (normalized to TIA1 = 1000) [3] of 0. It also gave a total ion current (normalized to TIA1 = 1000) [4] of 0, a total ion current (normalized to TIA1 = 1000) [5] of 0 and a total ion current (normalized to TIA1 = 1000) [6] of 133.
“NADH dehydrogenase [ubiquinone] flavoprotein 1, mitochondrial (from UniProt Q91YT0 21-464)” showed a total ion current (normalized to TIA1 = 1000) [1] of 0, a total ion current (normalized to TIA1 = 1000) [2] of 0 and a total ion current (normalized to TIA1 = 1000) [3] of 0. For the same substance, the total ion current (normalized to TIA1 = 1000) [4] was 0, the total ion current (normalized to TIA1 = 1000) [5] was 0 and the total ion current (normalized to TIA1 = 1000) [6] was 179.
“NADH dehydrogenase [ubiquinone] iron-sulfur protein 2, mitochondrial (from UniProt Q91WD5 34-463)” showed a total ion current (normalized to TIA1 = 1000) [1] of 0, a total ion current (normalized to TIA1 = 1000) [2] of 27 and a total ion current (normalized to TIA1 = 1000) [3] of 0. It also gave a total ion current (normalized to TIA1 = 1000) [4] of 0, a total ion current (normalized to TIA1 = 1000) [5] of 0 and a total ion current (normalized to TIA1 = 1000) [6] of 137.
Work on “NADH dehydrogenase [ubiquinone] iron-sulfur protein 3, mitochondrial (from UniProt Q9DCT2 36-263)” yielded a total ion current (normalized to TIA1 = 1000) [1] of 60.8, a total ion current (normalized to TIA1 = 1000) [2] of 36.9 and a total ion current (normalized to TIA1 = 1000) [3] of 0. It also gave a total ion current (normalized to TIA1 = 1000) [4] of 0, a total ion current (normalized to TIA1 = 1000) [5] of 0 and a total ion current (normalized to TIA1 = 1000) [6] of 366.
For “Nascent polypeptide-associated complex subunit alpha, muscle-specific form (from UniProt P70670 1-2187)”, the total ion current (normalized to TIA1 = 1000) [1] was 0, the total ion current (normalized to TIA1 = 1000) [2] was 0 and the total ion current (normalized to TIA1 = 1000) [3] was 474. The total ion current (normalized to TIA1 = 1000) [4] was 0, the total ion current (normalized to TIA1 = 1000) [5] was 10.5 and the total ion current (normalized to TIA1 = 1000) [6] was 98.9.
Work on “Nicotinamide phosphoribosyltransferase (from UniProt Q99KQ4 1-491)” yielded a total ion current (normalized to TIA1 = 1000) [1] of 0, a total ion current (normalized to TIA1 = 1000) [2] of 0 and a total ion current (normalized to TIA1 = 1000) [3] of 1570. It also gave a total ion current (normalized to TIA1 = 1000) [4] of 0, a total ion current (normalized to TIA1 = 1000) [5] of 0 and a total ion current (normalized to TIA1 = 1000) [6] of 0.

— patent US20190142860A1, “NUCLEIC ACID BASED TIA-1 INHIBITORS” (Aquinnah Pharmaceuticals, Inc., priority 2015, published 2019)
